Measured values: a protein production outcome set (Wang et al. 2014)

Test: label from the status in PepcDB records
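Also: failed if final PepcDB status was selected cloned or expressed and not failed if soluble or beyond.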

Sequence | protein production
MLLDKIQNLIIQSDISIFQSMKKMDEEKVKLLFVFRGDCFVGILTIGDIQRAIIKQNDTSMQINNILDQNKVFAYKGESLEIIKNKMIHLRAECMPILDSKGELVDVLFWKDLFIDEVRVDDRKIDLPVVIMAGGKGTRLKPLTNVIPKPLIPIGDKTILEAILDQFESIGCSKFYMSVNYKYDILKFYLAQLDHKYDIRFFKEDKPLGTIGSVSLLKDKISTPFFVSNCDIIIDQDYRDVYDYHINNSNDLTIVTAVKRTRIPYGVIETIENGLMTELIEKPEFTYMINSGVYILQPELINEIPENELFHITHLMEKVKSRGGKIGCFPVSEKSWTDIGEWNEYLKLLGILEHHHHHH | failed
MLLILIIIAFVVLFVFFAKYQKKQAQAAALAAGDPSALLNHGLTLINQNQVETGLDFIHQAVDKGFAIAAIALAELYSGRFPQVPADAKASNDWYKKAAELDPQYLAMLTLPNLLSSQAQTPDELIAQVEQLKPNAEAGQAEFQYELAYLYLRQPFLDPDASQAIYWFEKAAAQNKQEANYHLGTLYKDDERITSDYNKARKYFEKAVAAGDELAKDNLAHMLATGQGGPKDLVRAEHLLSEYAAEDDFRQYYLGKRFLYGEDFAVDYDKARHWLEKSSAAGNVFAKLALAHLKLLAQKNDQDYLQARTEFEALAPQWQEEALFGLGKIYEEGLGVSRQPIKALMYYQLAAMSHNTDYLTAYDKLSKRLGTLEIREAQSLCNNFLHQHPIPNEQQAYYYLNQAEIYRKGDHPSREGLQTAETWYRKSADLGNQNAMQALVEIYRHELMDKPVQAFIWSSILLRNFGKYGMNSDQLLYQQQAQSRLTESELLYAQSEIERIEALLTPYLETHQSV | failed
MLLLHWDNMGKIELHHVFVMLSCIYLIFSDISINSAVVFLFSSIFFYISFTAGKRLYYLIGIDKENLKINLKKHYNFGIFLMIVGLIAVTSDLIWVKDVPLFNPLSRKFLNVYFTTLSHLFLVGWAIVVASSNIDKKKILLYTIIFSILIMLLGYRTNVLVLLISVGAILYYKNKISNREILKYGILVFVILLGLSILRLYALGVEGNPITSRISLTMSIYDIIFNNFNGVFNGYIHYSAVFSYLGLCNGARTVIAKTLGIYNVSITPTIVGAVIGDYGTLAIIPYFGILGIFLGFFYKLAKDVKGIYLGIYGILFAYTLIGIESGILDIDVILYYFFGLILCIYAILLRKLKR | failed
MLLSFDNKAIADWAKLSGDYNPIHFEVERARETGANDIIVHGMLPLLHIKQRLSTVLPADTGRDWVSVKAMFRSPVLRQLPHALEIQPGKQRSRFSLRATHDASEVMAGSVYRSVPAESPEQPASFSIDRQLFREKRAVFAEAFPDFDRAWLLVDALTFSQFLSSEVPFSIVRDLAKMSGIASQHELMDAALTVQTAHTVMVEPELFRMPLSQLKDPGEIRCELHAPVTVPNSKDTLSGLSQFTVRLDGRPVMQSEVGLLVRFKS | failed
MLLSIIMPAHNAAAYLERTLALLAQQIAGLEQVEVVAIDDASTDETAKILVEFARTHSWLKAISVDFANVGLARQAGIGLAGGQYVTFLDSDDAFLSGGLAWMVNVLRQRAPDLLMTPLQETGQPLDGTEVAGLFQDVVPLSTQQACDLFCEHQRLQGHFAGKCVTRQILLQHDLAAMECYEDMMTTPHWIVEAKSIVWGEVPVYAYYKRPGSLSDRGQTWRYGKEYIRALQSIEAAFAGRIAVWQTAHLWIGFAKDLLKTSTGRQFLDTQPAVAEKIQSISVWKYLVATQVSCKWKIRFLRVRLRLLEHHHHHH | not failed
MLLYIHGFNSSPFSDKAVITARYMAEYHPSLTFHQPQLPNTPKAAMALLQSYVEAAQQANEPLNYIGSSLGGYFASYLAERYGGRAVLVNPAVKPFELFDEFMGPQFNPYTQEHYQVLPEHKREVAEFNTPVIRNPERFLVLLQTGDEVLDYREALHKYHHCQLRIESGGDHSFVGYERYLQTVSQFLH | failed
MLNAIKFRIYPNAQQKELISKHFGCSRVVYNYFLDYRQKQYAKGIKETYFTMQKVLTQIKRQEKYHYLNECNSQSLQMALRQLVSAYDNFFSKRARYPKFKSKKNAKQSFAIPQNIETKTETQTIALPKFKEGIKAKLHRDLPKDSVIKQAFISCIADQYFCSLSYETKEPIPKPTIIKKAVGLDMGLRTLIVTSDKIGYPHIRFYQKLEKKLTKAQRRLSKKVKDSNNRKKQAKKVSRLHLACSNTRDDYLHKISNEITNQYDLIGVETLNVKALMRTYHSKSLANASWGKFLTMLEYKAQRKGKTLLSIDRFFPSSQLCSYCGVNTGKKHESITKFTCPHCQTTHHRDYNASVNIRNYALGMLDDRHKVKTDKARVGIIRSDYTHHTNECVKACGASSNGVSSKYGNILDLASYGAMKQEKAQSL | failed
MLNGLWLGFFLVAAVSAMAQWLVGGNAGIFAAMVESIFAMAKLSVEVMVLLFGTLTLWLGFLKIAEKAGIVEWLAKVLGPLFARLMPEVPPGHPALGLITMNFAANGLGLDNAATPIGLKAMRALQELNPGSTTASNAQILFLVLNASSLTLLPVTVFMYRAQQGAPDPTMVFLPILLATSVSTLVGLLSVAVMQRLRLWDPVVLAYFIPGALLLGGFMAFLGTLSAAALASLSSLLGNLTLFGVIMLFLVVGALKRVKVYEAFVEGATEGFDVAKSLLPYLVAMLVAVGVLRASGALELALDGIRHAVSWMGLDTRFVEGLPTALVKPFSGSAARAMLIETMQTQGVDSFPALVAATIQGSTETTFYVLAVYFGAVGIQRVRHAVGCALLAEFSGVVAAIFVCYWFFA | failed
MLNPDELVAIDIHTHAEEPCGCHADDGYDDFQARMAEYFGSPNKHPPTVPETAAYYRAKKIAAVIFPVDAERETGFRRYNNDEMIEITRQNSDVLIPFASIDPHKGKIGVREARRLIADYGIKGFKFHPTMQGFYANDRLAYPLYEAIQEGGAIALFHTGQTGVGSGMPGGMGMRLKYSNPMYMDDVAADFPDMKIVLAHPSFPWQEEALSVATHKPNVYIDLSGWSPKYFPPILVRYINSILQDKMLFGSDWPVITPDRWLSDFAKLEIREEVRAKVLKQNARKLLGI | failed
MLNSDIYLKESLYDLLSLWRTPAFFLPAMLFPLVFYVFFGIVFNFSAAQGEYMLVSYACFGMMGPALFNYATAVASDRAQGWLTLKRISPMPLSAYVVAKFFSSLVFAACIALMLFITAALFADVQLLLWQWATLFTVLLIGTLPFALIGLLMGLCLSDKAAPAVVNLVYLPMAFLSGLWVPIQFLPDTVRYIAYGLPSYHYSQLAHAVIGTNQGHNLWLHGLYLVAFCGVLIAVIYWRYQRLSR | failed
MLNTLIVGASGYAGAELVSYVNRHPHMTITALTVSAQSNDAGKLISDLHPQLKGIVDLPLQPMSDVRDFSADVDVVFLATAHEVSHDLAPQFLQAGCVVFDLSGAFRVNDRAFYEKYYGFTHQYPELLEQAVYGLAEWNVDKLNTANLIAVPGCYPTAAQLSLKPLIDGGLLDLTQWPVINATSGVSGAGRKAAISNSFCEVSLQPYGVFTHRHQPEIAVHLGAEVIFTPHLGNFPRGILETITCRLKAGVTHAQVADVLQKAYGDKPLVRLYDKGVPALKNVVGLPFCDIGFAVQGEHLIVVATEDNLLKGAAAQAVQCANIRFGFAETQSLI | not failed
MLPAQDTRGKGLSLARRLYRSRTLGLALGFFCVAAGMAPLQPAPWVWGFMLFNAFAWPHLAYQWARLARVPFRAEYRNLLVDSLLGGFWVGAMHFNPLPLATTLGMMAMNNMALGGLRFFLAGSAAQVLGMGVALWLFGPAFVAQTTPEQVYACLPMLTLYPLALGYICYQQAVTLGRHKRELLALSRTDSLTGLLNHGAWKDQLEIEFQRCKRQAHGGAIALIDIDHFKAINDTYGHVAGDVVLRQLSKLLRQNLRVSDQAGRYGGDEFCVILPDVPLAHAAELMEALRGRFGALGYEQSPALQVSLSIGLAAFNPLHDDAMGWLNDADQALYAAKTCGRNNVTCHPPEQPSRRLLNSL | failed
MLPAYIKIHDAIKKEIDKGTWKIGQRLPSERDLADDYSVSRMTLRQSITLLVEEGILERRVGSGTYVASHRVQEKMRGTTSFTEIVNSQGRKPSSKLISFQRKLANETEIQKLNLSQSDYVVRMERVRYADKVPLVYEVASIPENLIKGFEQSEVTEHFFKTLTENGYEIGKSQQTIYARNASERVASHLEVNAGHAILALTQVSYFTDGKPFEYVHGQYVGDRFEFYLENN | failed
MLPIYTGSAIQCPMRLDAYLVEMGHFKSRGRAKTAILDGKVKVNGIAVTKVSRDVSIDDTIEVAEGLDQPQGYFKLKYVQEESGVLKPGDRVLDLGSSAGGFLLFASEIADHVKGIEFSRDFRSELGKIAYERENVEIIFGDVFTIPLKELSEEPVDVILSDMTLEPEDSIKALSRMLPLLKEGGRLLQVIKIPKKKNPKPILSRIENLGLEIQQVLSSEKQEIYVVAKRPFLEGKESTEENE | failed
MLPLLVGTGVLVFLLLFGDSLLQDSDSYWQIETGRWILAHGTVPTVDSFSFSKAGEPWQSSSWLAQLIFALAMQAGWAGPVIVTALAVAAALAMFTAYLERYASALVTAALALAAMVLIMPHVLARPHMLALPVMVAWFIGLIDAADRKAAPPWALLLVMALWANLHGGFVFGLMLIGPLGLEALRQAEPQRRLSLALRWAAFGIAAVAACCATPYGWGTLLAATKILSLGEVLSTLGEWASSDFSKFGTFEASLLALLGIALARGLTLPWPRLLLVLGLVHMALVHVRSIEHYALLVPMIAARPWALQLGLARKSAEAKPDLAPPAWAGVVAVIAIIAATIAAAPRLHYRFDEPQVPERALAAVQAHGAKRIFNAYIFGGYLISRHVPVFIDGRAELYGEARVMDMMRATAGRDPAALDRMLTGNDIDATMLPPSAAAVRQMDERPGWRRLYADDIAVVHVRD | failed
MLPSGLKETQLRESNNNQKVHPQPMEESINQNPEAMEALISNLFGNISSLKSAYIELQSAHTPYDPEKIQAADKVVISELKNLSEMKHFYRENNPKPVCVSPQDSRLAAEIQEQQSLLKTYEVMVKKFQSEIQNKDSEITQMLQKIEEANQKRLKLEKNLKLRGMSTNEGSNGDGNMQFPDLTTELYVSTYEAAAKAVHDFSKPLINMMKAAGWDLDSAANSIEPDVVYAKRPHKKYAFESYICQRMFSGFQQKNFSVNSESAAVMANDDTDTFFRQFLALKDMDPLDALGTNPDSNFGIFCRSKYLLLVHPKMEASFFGNLDQRDYVTGGGHPRTAFYQAFLKLAKSIWILHRLAYSFDPAAKIFQVKKGSEFSDSYMESVVKNIVVDEKEENPRVGLMVMPGFWIGGSVIQSRVYVSGVKVLE | failed
MLPTKINLIRLRRELAMLRRIRRVMEEKREVILHYITSMAAEYVRYQREVYSELERIYQNYYLGVAAEGIERARAFTAPAEGSLEVDVSTRTLFAVKTPVFSLREETVPPLPLPAGSDPKLVQSILDMRSILDKLLKLAEYEETLQRLISELKDTQRLINALDYVILPSYQNAIKFIKLVLEDRMREDFVRLKIIKRKMEAKTQLEHHHHHH | not failed
MLQIIFLVIGLFIIVLALSFAFKRYARLILWSSAITLFAGTLLLVGIGVINPIDGDNTGSTTFWGTIITLISGAALAFCAEMLKEGNKGKTKVQNGNSSVSGKQTADNEETVVLIGMLHTELAIKVFAKAIEAGYIGEKGSHYKWNDSKVLLAYMCGRIYCGDKPEYSEMDEKSYWKFGRMGVFPDTELSNLFEMPDLGQSRSNRKDLAVPAKSKEIDKFFE | failed
MLQRIGLIFLHNIVVVSNCFYFQAFLDEFTNWSRINPNKARIPMAGDTQGVVGTVSKPCFTAYEMKIGAITFQVATGDIATEQVDVIVNSTARTFNRKSGVSRAILEGAGQAVESECAVLAAQPHRDFIITPGGCLKCKIIIHVPGGKDVRKTVTSVLEECEQRKYTSVSLPAIGTGNAGKNPITVADNIIDAIVDFSSQHSTPSLKTVKVVIFQPELLNIFYDSMKKRDLSASLNFQSTFSMTTCNLPEHWTDMNHQLFCMVQLEPGQSEYNTIKDKFTRTCSSYAIEKIERIQNAFLWQSYQVKKRQMDIKNDHKNNERLLFHGTDADSVPYVNQHGFNRSCAGKNAVSYGKGTYFAVDASYSAKDTYSKPDSNGRKHMYVVRVLTGVFTKGRAGLVTPPPKNPHNPTDLFDSVTNNTRSPKLFVVFFDNQAYPEYLITFTA | failed
